From patent US20250099622A1, “COMPOSITIONS AND METHODS FOR EXPRESSING THERAPEUTICS” (priority 2022, published 2025)

Experiments:
[1] = NMDA mouse study: in-house CNP36-Fc ELISA of ocular (whole globe) and serum samples
Experimental: Animals in Groups 3-6 had terminal blood collected on Day 7. IBMX was used during blood collection to inhibit phosphodiesterase activity. […] Briefly, each syringe for cardiac puncture was pre-rinsed with a stock solution of 10 mM IBMX prior to drawing blood. All mice were sedated to a deep plane of sedation under isoflurane and euthanized via exsanguination. After each syringe was pre-rinsed with 10 mM IBMX, a 25 G needle was inserted into the heart and the animal was exsanguinated and euthanized, and blood was collected. The volume of blood collected was noted on the paperwork and the appropriate volume of IBMX was added into a 1.5 mL RNAse/DNAse-free microfuge tube. […]
Bioanalytical work and the accompanying analyses were performed at the conclusion of the study. […] Left eyes (OS) from all animals (n=8) in each group receiving the different AAV constructs were analyzed. […]
The CNP36 and CNP-Fc36 expression in ocular (whole globes) and serum samples was quantified using the commercial CNP36 ELISA kit and in-house CNP36-Fc ELISA (Example 2), respectively. […] After a 45 min incubation, plates were washed and CNP36-Fc was detected by the addition of 3,3′,5,5′-tetramethylbenzidine (TMB) substrate. The reaction was stopped by the addition of stop solution and the plate was read immediately at 450 nm along with the reference wavelength of 600 nm. […]

HEK293 cells = experiment: CNP-Fc ELISA of supernatant of AAV-transduced HEK293 cells; format: cell-based, Human
Experimental: C-type natriuretic peptide (CNP) has two isoforms, CNP-22 and CNP-53. Example 2 illustrates that CNP-36 fused with Fe increased the half-life of the CNP and also facilitated in purification and ELISA detection when compared to native (unfused) CNP. Transduction and CNP-Fc expression experiments were performed with three AAV vectors (AMI061, AMI087 and AMI0488). FIG. 1A is the pictorial depiction of the three vectors. FIGS. 1B-F illustrate additional vectors that can encode the CNP or the CNP fusion protein. Enzyme-linked immunoassay (ELISA) was developed for quantifying CNP-Fc fusion proteins in cell culture supernatants. The ELISA assay was used to quantify CNP-Fc expressed in HEK293 cells, human chondrocytes (HCH) cells, and human skeletal muscle cells (hSkMC) upon transduction with one of the three AAV constructs described herein.
Buffer and substrate. Coating buffer: 3.7 g sodium bicarbonate, 0.64 g sodium carbonate in 1 L of Milli Q water, pH 9.6. Stored at RT; Blocking buffer: Commercial Casein blocking buffer in PBS+ added 0.1% Tween20. Stored at 4° C.; Standard diluent: same as blocking buffer; Wash buffer: 1×PBS with 0.1% tween 20 (30 days expiry from date of manufacture); Coating Antibody (Ab): Human CNP Antibody (monoclonal), coating concentration was 2 μg/mL; Detection Ab: Goat pAb anti-human Fc. Diluted up to 1:20,000 final dilution in well. Stored at 4° C.; HRP: Streptavidin-HRP stock of 1 mg/mL, diluted up to 1:10,000. Stored at 4° C.; Substrate: TMB. Stored at 4° C.; and Stop solution: 2 N HCl. Stored at ambient temperature.
• 1. Coat 96-well plate with 2 μg/mL anti-CNP antibody final concentration per well in the coating buffer with a 50 μL volume and cover the plate with sealing cover. Put the plate at 4° C. overnight. • 2. Next day, remove the plate, wash thrice with wash buffer and tap the plate on the paper towel to remove excess solution. • 3. Add 300 μL of blocking buffer to each well using multichannel pipette. […] Add 50 μL stop solution and read plate at 450 nm with 600 as reference within 15 min. […]

AMI088: purified fusion protein Fc1-(G4S)4-CNP36 (IgG1 Fc), SEQ ID NO: 133
CNP36-Fc expression in serum samples ([1]; Day 7 serum): Neither CNP36-Fc nor CNP36 were expressed
stability of CNP36-Fc in ocular samples ([1]; mouse, in vivo): stable and thus quantifiable
Concentration (HEK293 cells; CNP-Fc in HEK293 supernatant 5 days after transduction with 100,000 MOI of AAV2 N54 vector): 75 µg/mL
CNP-Fc expression compared to other CNP constructs (HEK293 cells; HEK293 supernatant, 100,000 MOI, 5 days): highest expression
